Assay results reported in publication PMC8011926 (Journal of Medicinal Chemistry, 2020).
Non-standard residues stand in square brackets, D forms with d. Residues, ends and D or L forms follow the SMILES beside them. No end group written: not given here.

B1: [Ala^4]N/OFQ(1–13)-NH2 (peptide)
peptide: FGGATGARKSARK-NH2
B2: [Ala^3]N/OFQ(1–13)-NH2 (peptide)
peptide: FGAFTGARKSARK-NH2
B3: [Trp^4]N/OFQ(1–13)-NH2 (peptide)
peptide: FGGWTGARKSARK-NH2
B4: [D-Ala^2]N/OFQ(1–13)-NH2 (peptide)
peptide: F[dA]GFTGARKSARK-NH2
modifications: N-terminus assumed
SMILES: C[C@H](NC(=O)CNC(=O)[C@@H](NC(=O)[C@H](Cc1ccccc1)NC(=O)CNC(=O)[C@@H](C)NC(=O)[C@@H](N)Cc1ccccc1)[C@@H](C)O)C(=O)N[C@@H](CCCNC(=N)N)C(=O)N[C@@H](CCCCN)C(=O)N[C@@H](CO)C(=O)N[C@@H](C)C(=O)N[C@@H](CCCNC(=N)N)C(=O)N[C@@H](CCCCN)C(N)=O
B5: [Asn^5]N/OFQ(1–13)-NH2 (peptide)
peptide: FGGFNGARKSARK-NH2
B6: [Val^5]N/OFQ(1–13)-NH2 (peptide)
peptide: FGGFVGARKSARK-NH2

Each molecule was assayed against N/OFQ peptide (NOP) receptor fused to Renilla luciferase (UniProt P41146).
Chain of N/OFQ peptide (NOP) receptor fused to Renilla luciferase (P41146 whole entry, the tested form may be a part): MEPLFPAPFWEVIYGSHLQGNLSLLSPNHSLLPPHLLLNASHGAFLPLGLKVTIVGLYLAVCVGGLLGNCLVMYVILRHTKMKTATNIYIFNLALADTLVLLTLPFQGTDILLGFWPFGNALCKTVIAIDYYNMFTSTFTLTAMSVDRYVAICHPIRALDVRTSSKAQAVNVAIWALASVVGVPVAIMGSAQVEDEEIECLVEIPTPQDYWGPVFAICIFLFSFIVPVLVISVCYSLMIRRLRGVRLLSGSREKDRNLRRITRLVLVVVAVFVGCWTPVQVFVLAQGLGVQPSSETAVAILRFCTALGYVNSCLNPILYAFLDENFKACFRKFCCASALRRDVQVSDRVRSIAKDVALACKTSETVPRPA

Molecule | concentration ratio (EC50 of the ligand / EC50 of N/OFQ(1–13)-NH2) for promoting the NOP/G protein interaction (BRET, membranes); concentration–response curve incomplete | pEC50 for promoting the NOP/G protein interaction (BRET, membranes with NOP-RLuc and Gβ1-RGFP) | pEC50 for promoting the NOP/β-arrestin 2 interaction (BRET, cells with NOP-RLuc and β-arrestin 2-RGFP)
B1 | 1000 | – | –
B2 | – | 7.88 -log10 M | 7.54 -log10 M

Each molecule was assayed against T1, mu opioid receptor (mu-RLuc/Gβ1-RGFP) (Homo sapiens, UniProt P35372).
T1 construct: expressed in transfected cells; host or cells: SH-SY5Y (enriched plasma membranes)
T1 sequence (P35372 whole entry, species assumed): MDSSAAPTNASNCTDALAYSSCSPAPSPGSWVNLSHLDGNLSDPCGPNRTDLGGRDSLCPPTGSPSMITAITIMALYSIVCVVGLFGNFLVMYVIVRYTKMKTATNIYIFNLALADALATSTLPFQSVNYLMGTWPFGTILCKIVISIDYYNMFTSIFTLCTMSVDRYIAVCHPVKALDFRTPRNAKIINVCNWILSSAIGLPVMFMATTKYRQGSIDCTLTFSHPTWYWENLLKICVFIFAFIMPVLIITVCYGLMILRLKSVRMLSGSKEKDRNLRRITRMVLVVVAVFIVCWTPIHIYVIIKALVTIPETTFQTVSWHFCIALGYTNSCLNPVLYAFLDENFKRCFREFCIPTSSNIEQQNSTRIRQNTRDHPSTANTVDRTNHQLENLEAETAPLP
Type: biochemical
Procedure: For this study, human embryonic kidney (HEK293) cells, permanently co-expressing the different pairs of fusion proteins NOP-RLuc/Gβ1-RGFP and NOP-RLuc/β-arrestin 2-RGFP, and SH-SY5Y cells stably, co-expressing the different pairs of fusion proteins mu-RLuc/Gβ1-RGFP and mu-RLuc/β-arrestin 2-RGFP or delta-RLuc/Gβ1-RGFP and delta-RLuc/β-arrestin 2-RGFP, were used. Cells were prepared and cultured, as described previously.[19],[23] […] The protein concentration in membrane preparations was determined using the QPRO-BCA kit (Cyanagen Srl, Bologna, IT) and the Ensight (PerkinElmer, Waltham, USA) in the spectrophotometer mode.
Luminescence in membranes was recorded in 96-well untreated white opaque microplates, while in whole cells, it was recorded in 96-well sterile poly-D-lysine-coated white opaque microplates (PerkinElmer, Waltham, MA, USA) using the luminometer Victor 2030 (PerkinElmer, Waltham, MA, USA). […] Coelenterazine at a final concentration of 5 μM was injected 15 min prior to reading the cell plate. Different concentrations of ligands in 20 μL of PBS–BSA 0.01% were added and incubated 5 min before reading luminescence. […] The BRET ratio was measured 15 min after agonist injection. […]
The pharmacological terminology adopted in this paper is consistent with IUPHAR recommendations.[68] All data are expressed as the mean ± sem of five independent experiments made in duplicate. […]

Molecule | mu/G protein pEC50 (CL95%)
CSCC[C@H](NC(=O)[C@H](CC(C)C)NC(=O)[C@H](Cc1c[nH]cn1)NC(=O)[C@H](Cc1ccccc1)NC(=O)[C@@H](CCSC)NC(=O)[C@@H](N)Cc1ccc(O)cc1)C(=O)N[C@@H](CC(=O)O)C(N)=O [Deltorphin A] (H-Y[dM]FHLMD-NH2) | crc incomplete

Target: N/OFQ peptide (NOP) receptor fused to Renilla luciferase (UniProt P41146)
Remark: another data set of the same source

Molecule | pEC50 for promoting the NOP/G protein interaction (BRET, membranes with NOP-RLuc and Gβ1-RGFP) | pEC50 for promoting the NOP/β-arrestin 2 interaction (BRET, cells with NOP-RLuc and β-arrestin 2-RGFP)
[Cha^1]N/OFQ(1–13)-NH2 (peptide) | 8.93 -log10 M | 8.28 -log10 M
B3 | 7.63 -log10 M | 7.17 -log10 M
B4 | 7.57 -log10 M | 7.16 -log10 M
B5 | 8.03 -log10 M | 7.56 -log10 M
B6 | 7.94 -log10 M | 7.38 -log10 M

Target: N/OFQ peptide (NOP) receptor fused to Renilla luciferase (UniProt P41146)
Remark: another data set of the same source

Molecule | pEC50 for promoting the NOP/G protein interaction (BRET, membranes with NOP-RLuc and Gβ1-RGFP) | pEC50 for promoting the NOP/β-arrestin 2 interaction (BRET, cells with NOP-RLuc and β-arrestin 2-RGFP)
[AC3C^7]N/OFQ-NH2 (peptide) | 7.67 -log10 M | 7.56 -log10 M
[AC5C^7]N/OFQ-NH2 (peptide) | 8.1 -log10 M | 8.1 -log10 M
[AC5C^11]N/OFQ-NH2 (peptide) | 8.61 -log10 M | 8.22 -log10 M
[Aib^7]N/OFQ-NH2 (peptide) | 8.92 -log10 M | 8.4 -log10 M
[Aib^11]N/OFQ-NH2 (peptide) | 8.35 -log10 M | 8.21 -log10 M
